Entries after “also recorded” stand apart in the source; their conditions may differ. Non-standard residues stand in square brackets, D forms with d. No end group written: not given here. Me2 = dimethyl-lysine (dimethyl-epsilon-NH2-L-lysine); pS = N[C@@H](COP(=O)(O)O)C(=O)O; Orn = NCCC[C@H](N)C(=O)O

The record followed here is patent US20060286611A1, “Antibodies against biotinylated histones and related proteins and assays related thereto” (Board of Regents of University of Nebraska, priority 2005, published 2006).

Assay [1] addresses T1, biotinidase (Homo sapiens, UniProt P43251).
T1 construct: 60 μL of human plasma; from tissue; host or cells: human plasma
T1 sequence (P43251 22-523): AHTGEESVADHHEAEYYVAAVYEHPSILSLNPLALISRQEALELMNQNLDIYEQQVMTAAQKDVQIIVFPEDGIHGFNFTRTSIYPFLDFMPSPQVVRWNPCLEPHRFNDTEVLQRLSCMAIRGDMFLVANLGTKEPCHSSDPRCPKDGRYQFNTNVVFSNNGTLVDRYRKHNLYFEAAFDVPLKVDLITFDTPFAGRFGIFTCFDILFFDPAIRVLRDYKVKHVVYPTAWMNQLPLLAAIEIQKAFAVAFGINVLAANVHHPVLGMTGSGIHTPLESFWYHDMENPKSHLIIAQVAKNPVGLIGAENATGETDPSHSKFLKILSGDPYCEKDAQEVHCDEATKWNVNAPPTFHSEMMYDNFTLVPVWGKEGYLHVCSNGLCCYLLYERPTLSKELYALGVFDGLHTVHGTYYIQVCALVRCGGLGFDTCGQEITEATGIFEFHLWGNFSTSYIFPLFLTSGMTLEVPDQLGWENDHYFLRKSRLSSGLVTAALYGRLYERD
Kind of assay: Enzymatic biotinylation of synthetic histone H3 peptides by biotinidase. In kind it is biochemical. As to conditions: biotinidase and biocytin, 45 min.

Assay [2] has as its target T1, biotinidase. Kind of assay: Enzymatic biotinylation of synthetic histone H2A and H2A.X peptides by biotinidase. It is filed as biochemical. The note with it: human plasma as source of biotinidase, 75 μmol/L biocytin, pH 8.0, 37° C., up to 45 minutes. The source says: In Examples described above, the inventors developed a procedure to identify amino acid residues in histones that are targets for biotinylation. […] Amino acid substitutions (e.g., lysine-to-alanine substitutions) in synthetic peptides are used to corroborate identification of biotinylation sites. In addition, amino acid modifications (e.g., acetylation of lysines) in peptides can be used to investigate the cross-talk between biotinylation of histones and other known modifications of histones.
Peptides from both the N- and C-terminal regions of histone H2A and H2A.X were included in the analysis of biotinylation sites. […] Reactions were quenched by adding an equal volume of Tricine gel loading buffer (Invitrogen, Carlsbad, Calif.).

For the substance “TAOKSTGG (TA[Orn]KSTGG) [Peptide R8O6-13]”, the “enzymatic biotinylation by biotinidase, peptide-bound biotin probed with streptavidin-peroxidase” value in assay [1] is on record as “increased considerably”.

With “K125,127A122-129: C122-129 with K125 and K127 substituted with alanine (SHHAAAGK)”, in assay [2], the “enzymatic biotinylation by biotinidase, peptide-bound biotin probed with streptavidin peroxidase” value is listed as “decreased only moderately”.

Consider “TAAKSTGG [Peptide R8A6-13, histone H3 6-13, R8 substituted with alanine]”, for which, in assay [1], the “enzymatic biotinylation by biotinidase, peptide-bound biotin probed with streptavidin-peroxidase” value is “increased considerably”.

As for “K18,23A16-23: histone H3 amino acids 16 to 23, K18 and K23 substituted with alanine (PRAQLATA)”, the “enzymatic biotinylation by biotinidase, peptide-bound biotin probed with streptavidin-peroxidase” value in assay [1] is given as “no binding of biotin was detectable”.

Take “K9,14A9-16: histone H3 amino acids 9 to 16, K9 and K14 substituted with alanine (ASTGGAAP)”: in assay [1], the “enzymatic biotinylation by biotinidase, peptide-bound biotin probed with streptavidin-peroxidase” value was “no binding of biotin was detectable”.

On to “TARKS(p)TGG (TARK[pS]TGG) [S10S(p)6-13, histone H3 6-13, phosphorylation of S10]”, for which the “enzymatic biotinylation by biotinidase, peptide-bound biotin probed with streptavidin-peroxidase” value in assay [1] was “poor target for biotinylation”.

In the case of “K23A18-25: histone H3 amino acids 18-25, K23 substituted with alanine (KQLATAAA) [Peptide K23A18-25]”, the “enzymatic biotinylation by biotinidase, peptide-bound biotin probed with streptavidin-peroxidase” value in assay [1] is reported as “heavily biotinylated”.

In the case of “K5A1-9: histone H2A N1-9, K5 substituted with alanine (SGRGAQGGK) [Peptide K5A1-9]”, the “enzymatic biotinylation by biotinidase, peptide-bound biotin probed with streptavidin peroxidase” value in assay [2] is on record as “did not decrease biotinylation”.

In the case of “K18A18-25: histone H3 amino acids 18-25, K18 substituted with alanine (AQLATKAA) [Peptide K18A18-25]”, in assay [1], the “enzymatic biotinylation by biotinidase, peptide-bound biotin probed with streptavidin-peroxidase” value is reported as “barely detectable”.

For the substance “K13A,T16S12-20: T16S12-20 with K13 substituted with alanine (AAAKSRSSR)”, the “enzymatic biotinylation by biotinidase, peptide-bound biotin probed with streptavidin peroxidase” value in assay [2] is on record as “No biotinylation was detectable”.

With “SEQ ID NO:74: histone H2A peptide containing acetylated K9 and free K5 (SGRGKTGGK(Ac))”, in assay [2], the “enzymatic biotinylation by biotinidase, peptide-bound biotin probed with streptavidin peroxidase” value is “not a target for biotinylation”.

“Q6T,K5A1-9: Q6T1-9 with K5 substituted with alanine (SGRGATGGK)”: the “enzymatic biotinylation by biotinidase, peptide-bound biotin probed with streptavidin peroxidase” value in assay [2] is on record as “decreased biotinylation only moderately”.

Regarding “ATVGPKAPSG [Peptide C122-131, C-terminus of histone H2A.X, amino acids 122-131]”, the “enzymatic biotinylation by biotinidase, peptide-bound biotin probed with streptavidin peroxidase” value in assay [2] is “not biotinylated”.

Regarding “K125,127,129A122-129: C122-129 with all lysine residues substituted with alanine (SHHAAAGA)”, in assay [2], the “enzymatic biotinylation by biotinidase, peptide-bound biotin probed with streptavidin peroxidase” value is on record as “no biotinylation was detectable”.

As for “AKAKSRSSR [Peptide T16S12-20, N-terminus of histone H2A.X, amino acids 12-20]”, the “enzymatic biotinylation by biotinidase, peptide-bound biotin probed with streptavidin peroxidase” value in assay [2] is given as “good targets for biotinylation; also recorded: biotinylated only moderately”.

As to “SGRGKTGGK [Peptide Q6T1-9, N-terminus of histone H2A.X, amino acids 1-9]”, the “enzymatic biotinylation by biotinidase, peptide-bound biotin probed with streptavidin peroxidase” value in assay [2] is reported as “good targets for biotinylation”.

On to “K13,15A,T16S12-20: T16S12-20 with both lysine residues substituted with alanine (AAAASRSSR)”, for which the “enzymatic biotinylation by biotinidase, peptide-bound biotin probed with streptavidin peroxidase” value in assay [2] is on record as “no biotinylation was detectable”.

“K13,15A12-20: histone H2A N12-20, both lysine residues substituted with alanine (AAAATRSSR)”: the “enzymatic biotinylation by biotinidase, peptide-bound biotin probed with streptavidin peroxidase” value in assay [2] is listed as “no biotinylation was detectable”.

With “TARASTGG [Peptide K9A6-13, histone H3 6-13, K9 substituted with alanine]”, in assay [1], the “enzymatic biotinylation by biotinidase, peptide-bound biotin probed with streptavidin-peroxidase” value is given as “no biotinylation was observed”.

With “K15A,T16S12-20: T16S12-20 with K15 substituted with alanine (AKAASRSSR)”, the “enzymatic biotinylation by biotinidase, peptide-bound biotin probed with streptavidin peroxidase” value in assay [2] was “decreased moderately”.

Consider “N9-16: histone H3 amino acids 9-16, including K9 and K14 (KSTGGKAP; UniProt P68431 10-17, looked up, fragment) [Peptide N9-16]”, for which, in assay [1], the “enzymatic biotinylation by biotinidase, peptide-bound biotin probed with streptavidin-peroxidase” value is “relatively poor targets for biotinylation”.

“K127,129A122-129: C122-129 with K127 and K129 substituted with alanine (SHHAAAGA)”: the “enzymatic biotinylation by biotinidase, peptide-bound biotin probed with streptavidin peroxidase” value in assay [2] is reported as “considerable decrease of biotinylation”.

Regarding “K14A9-16: histone H3 amino acids 9 to 16, K14 substituted with alanine (KSTGGAAP) [Peptide K14A9-16]”, the “enzymatic biotinylation by biotinidase, peptide-bound biotin probed with streptavidin-peroxidase” value in assay [1] is on record as “heavily biotinylated”.

Take “TARKSTGG [Peptide N6-13, native unmodified peptide, position 6-13 in histone H3]”: the “enzymatic biotinylation by biotinidase, peptide-bound biotin probed with streptavidin-peroxidase” value in assay [1] is listed as “moderate target for biotinylation”.

As to “K23A16-23: histone H3 amino acids 16 to 23, K23 substituted with alanine (PRKQLATA) [Peptide K23A16-23]”, in assay [1], the “enzymatic biotinylation by biotinidase, peptide-bound biotin probed with streptavidin-peroxidase” value is on record as “weak”.

Consider “SEQ ID NO:76: histone H2A N7-14 with acetylation of K13 (GGKARAK(Ac)A)”, for which the “enzymatic biotinylation by biotinidase, peptide-bound biotin probed with streptavidin peroxidase” value in assay [2] was “decreased the biotinylation of K9”.

Turning to “SEQ ID NO:75: histone H2A N7-14 with dimethylation of K13 (GGKARAK(Me2)A)”, the “enzymatic biotinylation by biotinidase, peptide-bound biotin probed with streptavidin peroxidase” value in assay [2] is given as “decreased the biotinylation of K9”.

Consider “K13A12-20: histone H2A N12-20, K13 substituted with alanine (AAAKTRSSR) [Peptide K13A12-20]”, for which the “enzymatic biotinylation by biotinidase, peptide-bound biotin probed with streptavidin peroxidase” value in assay [2] is “did not render K15 a good target”.

In the case of “N18-25: histone H3 amino acids 18-25, including K18 and K23 (RKQLATKA; listed as Homo sapiens) [Peptide N18-25]”, the “enzymatic biotinylation by biotinidase, peptide-bound biotin probed with streptavidin-peroxidase” value in assay [1] was “better substrate for biotinylation”.

As for “K5,9A1-9: histone H2A N1-9, both lysine residues substituted with alanines (SGRGAQGGA)”, the “enzymatic biotinylation by biotinidase, peptide-bound biotin probed with streptavidin peroxidase” value in assay [2] is on record as “no biotinylation was detectable”.

For “Q6T,K9A1-9: Q6T1-9 with K9 substituted with alanine (SGRGKTGGA)”, the “enzymatic biotinylation by biotinidase, peptide-bound biotin probed with streptavidin peroxidase” value in assay [2] was “substantially decreased biotinylation”.

Take “GKKATQASQEY [Peptide C132-142, C-terminus of histone H2A.X, amino acids 132-142]”: in assay [2], the “enzymatic biotinylation by biotinidase, peptide-bound biotin probed with streptavidin peroxidase” value is reported as “not biotinylated”.

Consider “SEQ ID NO:73: histone H2A N1-9 with acetylation of K5 (SGRGK(Ac)TGGK)”, for which, in assay [2], the “enzymatic biotinylation by biotinidase, peptide-bound biotin probed with streptavidin peroxidase” value was “moderate decrease”.

Take “K4,9A1-9: histone H3 amino acids 1 to 9, K4 and K9 substituted by alanine (ARTAQTARA)”: the “enzymatic biotinylation by biotinidase, peptide-bound biotin probed with streptavidin-peroxidase” value in assay [1] was “no binding of biotin was detectable”.

As for “SHHKAKGK [Peptide C122-129, histone H2A amino acids 122-129]”, the “enzymatic biotinylation by biotinidase, peptide-bound biotin probed with streptavidin peroxidase” value in assay [2] is listed as “good target for biotinylation; also recorded: good substrate for biotinylation”.

Take “K15A12-20: histone H2A N12-20, K15 substituted with alanine (AKAATRSSR) [Peptide K15A12-20]”: the “enzymatic biotinylation by biotinidase, peptide-bound biotin probed with streptavidin peroxidase” value in assay [2] was “good target for biotinylation”.

Turning to “GGKARAKA [Peptide N7-14, histone H2A amino acids 7-14]”, in assay [2], the “enzymatic biotinylation by biotinidase, peptide-bound biotin probed with streptavidin peroxidase” value is given as “good target for biotinylation; also recorded: heavily biotinylated; also recorded: moderate target for biotinylation”.

Consider “AKAKTRSSR [Peptide N12-20, histone H2A amino acids 12-20]”, for which the “enzymatic biotinylation by biotinidase, peptide-bound biotin probed with streptavidin peroxidase” value in assay [2] is given as “not a good target; also recorded: poor target for biotinylation”.

With “K125,129A122-129: C122-129 with K125 and K129 substituted with alanine (SHHAAKGA)”, in assay [2], the “enzymatic biotinylation by biotinidase, peptide-bound biotin probed with streptavidin peroxidase” value is recorded as “considerable decrease of biotinylation”.
